Target: Aβ42 (human) (UniProt P05067)
Sequence (P05067 672-713): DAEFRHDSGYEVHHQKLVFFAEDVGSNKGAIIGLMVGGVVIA

- reaction half time (t1/2) of ThT-monitored fibril formation of 5 μM monomeric Aβ42 in the presence of 15 μM S100B, 50 mM Hepes pH 7.4, 1.1 mM CaCl2, 37°C, quiescent (Aβ42 alone t1/2 = 0.8 h): 2.2 h
B1: S100B (natural protein)
chain: MSELEKAMVALIDVFHQYSGREGDKHKLKKSELKELINNELSHFLEEIKEQEVVDKVMETLDNDGDGECDFQEFMAFVAMVTTACHEFFEHE

Reference: paper PMC6596341
